Reference: US20250163145A1 (SHIONOGI, published 2025)
Where no end group is shown, it is not given here.

T1: epitope peptide Cys-CE3C long (also: biotin label, site not given here)
T1 peptide: CSVNVDKQPKYEYSL


Biological target: T1, epitope peptide Cys-CE3C long
Experiment: competitive ELISA, unlabeled vs biotin-labeled peptide, antibody on anti-human IgG plate
Description: A diluted solution of the obtained recombinant humanized antibody, a biotin-labeled immunogen peptide, and Streptavidin-HRP (manufactured by PIERCE) were added to an anti-human IgG antibody-immobilized plate, and reacted overnight at 4° C. […] Next, a recombinant human antibody at the dilution rate, a biotin-labeled immunogen peptide, and Streptavidin-HRP (manufactured by PIERCE) were added. At the same time, a dilution series of unlabeled immunogenic peptide was added and reacted overnight at 4° C. After washing twice with ELISA wash buffer, TMB-Substrate Chromogen (manufactured by Thermo Fisher Scientific) was added to develop color, the reaction was stopped with an equal amount of 0.5N sulfuric acid, and the absorbance at 450 nm was measured. The concentration of the unlabeled peptide which attenuated the signal of the biotin-labeled peptide by half was defined as the affinity (IC50).

Binder	IC50 [pM]
humanized antibody h15H11 (IGHV7-4-1 Q43R, G44S, R94P / IGKV7-3 Y36F, V78M) (antibody, human IgG4 S228P, kappa, V domains shown, hIgG4Pro/hIgK; also called h15H11-WT; h15H11-wt) VH: QVQLVQSGSELKKPGASVKVSCKASGYTFTDYNMHWVRQAPGRSLEWMGRINPKNGVINSNEKFKDRFVFSLDTSVSTAYLQISSLKAEDTAVYYCAPSYYGGNTDAYWGQGTLVTVSS VL: DIVLTQSPASLAVSPGQRATITCRASESVDNYGISFMNWFQQKPGQPPKLLIYAASSQGSGVPARFSGSGSGTDFTLTINPMEANDTANYYCQQSKEFPWTFGGGTKVEIKR	1440
h15H11-8 (antibody, human IgG4 S228P, kappa, V domains shown, hIgG4Pro/hIgK) VH: QVQLVQSGSELKKPGASVKVSCKASGYTFTDYNMHWVRQAPGRSLEWMGRINPKNGVILSNEKFKDRFVFSLDTSVSTAYLQISSLKAEDTAVYYCAPSYYGGNDDAYWGQGTLVTVSS VL: DIVLTQSPASLAVSPGQRATITCRASESVDNYGISFMNWFQQKPGQPPKLLIYAASSQGSGVPARFSGSGSGTDFTLTINPMEANDTANYYCQQSKEFPWTFGGGTKVEIKR	600
h15H11-9 (antibody, human IgG4 S228P, kappa, V domains shown, hIgG4Pro/hIgK) VH: QVQLVQSGSELKKPGASVKVSCKASGYTFTDYNMHWVRQAPGRSLEWMGRINPKNGVILSNEKFKDRFVFSLDTSVSTAYLQISSLKAEDTAVYYCAPSYYGGNDDAYWGQGTLVTVSS VL: DIVLTQSPASLAVSPGQRATITCRASDSVDNYGISFLNWFQQKPGQPPKLLIYAASSQGSGVPARFSGSGSGTDFTLTINPMEANDTANYYCQQSKEFPWTFGGGTKVEIKR	610
h15H11-11 (antibody, human IgG4 S228P, kappa, V domains shown, hIgG4Pro/hIgK) VH: QVQLVQSGSELKKPGASVKVSCKASGYTFTDYNMHWVRQAPGRSLEWMGRINPKNGVILSNEKFKDRFVFSLDTSVSTAYLQISSLKAEDTAVYYCAPSYYGGDTDAYWGQGTLVTVSS VL: DIVLTQSPASLAVSPGQRATITCRASDSVDNYGISFLNWFQQKPGQPPKLLIYAASSQGSGVPARFSGSGSGTDFTLTINPMEANDTANYYCQQSKEFPWTFGGGTKVEIKR	620
h15H11-13 (antibody, human IgG4 S228P, kappa, V domains shown, hIgG4Pro/hIgK) VH: QVQLVQSGSELKKPGASVKVSCKASGYTFTEYNMHWVRQAPGRSLEWMGRINPKNGVINSNEKFKDRFVFSLDTSVSTAYLQISSLKAEDTAVYYCAPSYYGGNDDAYWGQGTLVTVSS VL: DIVLTQSPASLAVSPGQRATITCRASDSVDNYGISFLNWFQQKPGQPPKLLIYAASSQGSGVPARFSGSGSGTDFTLTINPMEANDTANYYCQQSKEFPWTFGGGTKVEIKR	640
h15H11-15 (antibody, human IgG4 S228P, kappa, V domains shown, hIgG4Pro/hIgK) VH: QVQLVQSGSELKKPGASVKVSCKASGYTFTDYNMHWVRQAPGRSLEWMGRINPKNGVILSNEKFKDRFVFSLDTSVSTAYLQISSLKAEDTAVYYCAPSYYGGDTDAYWGQGTLVTVSS VL: DIVLTQSPASLAVSPGQRATITCRASESVDNYGISFMNWFQQKPGQPPKLLIYAASSQGSGVPARFSGSGSGTDFTLTINPMEANDTANYYCQQSKEFPWTFGGGTKVEIKR	660
h15H11-10 (antibody, human IgG4 S228P, kappa, V domains shown, hIgG4Pro/hIgK) VH: QVQLVQSGSELKKPGASVKVSCKASGYTFTEYNMHWVRQAPGRSLEWMGRINPKNGVILSNEKFKDRFVFSLDTSVSTAYLQISSLKAEDTAVYYCAPSYYGGNDDAYWGQGTLVTVSS VL: DIVLTQSPASLAVSPGQRATITCRASESVDNYGISFMNWFQQKPGQPPKLLIYAASSQGSGVPARFSGSGSGTDFTLTINPMEANDTANYYCQQSKEFPWTFGGGTKVEIKR	610
h15H11-14 (antibody, human IgG4 S228P, kappa, V domains shown, hIgG4Pro/hIgK) VH: QVQLVQSGSELKKPGASVKVSCKASGYTFTDYNMHWVRQAPGRSLEWMGRINPKNGVINSNEKFKDRFVFSLDTSVSTAYLQISSLKAEDTAVYYCAPSYYGGDDDAYWGQGTLVTVSS VL: DIVLTQSPASLAVSPGQRATITCRASESVDNYGISFMNWFQQKPGQPPKLLIYAASSQGSGVPARFSGSGSGTDFTLTINPMEANDTANYYCQQSKEFPWTFGGGTKVEIKR	660
h15H11-7 (antibody, human IgG4 S228P, kappa, V domains shown, hIgG4Pro/hIgK) VH: QVQLVQSGSELKKPGASVKVSCKASGYTFTEYNMHWVRQAPGRSLEWMGRINPKNGVILSNEKFKDRFVFSLDTSVSTAYLQISSLKAEDTAVYYCAPSYYGGNDDAYWGQGTLVTVSS VL: DIVLTQSPASLAVSPGQRATITCRASDSVDNYGISFLNWFQQKPGQPPKLLIYAASSQGSGVPARFSGSGSGTDFTLTINPMEANDTANYYCQQSKEFPWTFGGGTKVEIKR	580
h15H11-12 (antibody, human IgG4 S228P, kappa, V domains shown, hIgG4Pro/hIgK) VH: QVQLVQSGSELKKPGASVKVSCKASGYTFTEYNMHWVRQAPGRSLEWMGRINPKNGVILSNEKFKDRFVFSLDTSVSTAYLQISSLKAEDTAVYYCAPSYYGGDTDAYWGQGTLVTVSS VL: DIVLTQSPASLAVSPGQRATITCRASESVDNYGISFMNWFQQKPGQPPKLLIYAASSQGSGVPARFSGSGSGTDFTLTINPMEANDTANYYCQQSKEFPWTFGGGTKVEIKR	620

More lines, now with the values ahead:

IC50 [pM]	Binder
520	h15H11-5 (antibody, human IgG4 S228P, kappa, V domains shown, hIgG4Pro/hIgK) VH: QVQLVQSGSELKKPGASVKVSCKASGYTFTEYNMHWVRQAPGRSLEWMGRINPKNGVILSNEKFKDRFVFSLDTSVSTAYLQISSLKAEDTAVYYCAPSYYGGDTDAYWGQGTLVTVSS VL: DIVLTQSPASLAVSPGQRATITCRASDSVDNYGISFLNWFQQKPGQPPKLLIYAASSQGSGVPARFSGSGSGTDFTLTINPMEANDTANYYCQQSKEFPWTFGGGTKVEIKR
510	h15H11-4 (antibody, human IgG4 S228P, kappa, V domains shown, hIgG4Pro/hIgK) VH: QVQLVQSGSELKKPGASVKVSCKASGYTFTDYNMHWVRQAPGRSLEWMGRINPKNGVILSNEKFKDRFVFSLDTSVSTAYLQISSLKAEDTAVYYCAPSYYGGDDDAYWGQGTLVTVSS VL: DIVLTQSPASLAVSPGQRATITCRASESVDNYGISFMNWFQQKPGQPPKLLIYAASSQGSGVPARFSGSGSGTDFTLTINPMEANDTANYYCQQSKEFPWTFGGGTKVEIKR
480	h15H11-2 (antibody, human IgG4 S228P, kappa, V domains shown, hIgG4Pro/hIgK) VH: QVQLVQSGSELKKPGASVKVSCKASGYTFTDYNMHWVRQAPGRSLEWMGRINPKNGVILSNEKFKDRFVFSLDTSVSTAYLQISSLKAEDTAVYYCAPSYYGGDDDAYWGQGTLVTVSS VL: DIVLTQSPASLAVSPGQRATITCRASDSVDNYGISFLNWFQQKPGQPPKLLIYAASSQGSGVPARFSGSGSGTDFTLTINPMEANDTANYYCQQSKEFPWTFGGGTKVEIKR
570	h15H11-6 (antibody, human IgG4 S228P, kappa, V domains shown, hIgG4Pro/hIgK) VH: QVQLVQSGSELKKPGASVKVSCKASGYTFTDYNMHWVRQAPGRSLEWMGRINPKNGVINSNEKFKDRFVFSLDTSVSTAYLQISSLKAEDTAVYYCAPSYYGGDDDAYWGQGTLVTVSS VL: DIVLTQSPASLAVSPGQRATITCRASDSVDNYGISFLNWFQQKPGQPPKLLIYAASSQGSGVPARFSGSGSGTDFTLTINPMEANDTANYYCQQSKEFPWTFGGGTKVEIKR
470	h15H11-1 (antibody, human IgG4 S228P, kappa, V domains shown, hIgG4Pro/hIgK) VH: QVQLVQSGSELKKPGASVKVSCKASGYTFTEYNMHWVRQAPGRSLEWMGRINPKNGVILSNEKFKDRFVFSLDTSVSTAYLQISSLKAEDTAVYYCAPSYYGGDDDAYWGQGTLVTVSS VL: DIVLTQSPASLAVSPGQRATITCRASDSVDNYGISFLNWFQQKPGQPPKLLIYAASSQGSGVPARFSGSGSGTDFTLTINPMEANDTANYYCQQSKEFPWTFGGGTKVEIKR
500	h15H11-3 (antibody, human IgG4 S228P, kappa, V domains shown, hIgG4Pro/hIgK) VH: QVQLVQSGSELKKPGASVKVSCKASGYTFTEYNMHWVRQAPGRSLEWMGRINPKNGVILSNEKFKDRFVFSLDTSVSTAYLQISSLKAEDTAVYYCAPSYYGGDDDAYWGQGTLVTVSS VL: DIVLTQSPASLAVSPGQRATITCRASESVDNYGISFMNWFQQKPGQPPKLLIYAASSQGSGVPARFSGSGSGTDFTLTINPMEANDTANYYCQQSKEFPWTFGGGTKVEIKR
